Source: PMC4747346, “Interaction of RECQ4 and MCM10 is important for efficient DNA replication origin firing in human cells” (Oncotarget, 2015)

Target: T1, HIS-RECQ4 (full length, recombinant) (human, UniProt O94761 1-1208)
T1 construct: RECQ4; full length construct, a gift from Dr Yilun Liu; the construct itself is not described; also called H-R4; source: E. coli Rosetta pLysS, purified (HQ sepharose flow-through, PEI, HiTrap HP with imidazole, FLAG M2 beads)
T1 sequence (looked up): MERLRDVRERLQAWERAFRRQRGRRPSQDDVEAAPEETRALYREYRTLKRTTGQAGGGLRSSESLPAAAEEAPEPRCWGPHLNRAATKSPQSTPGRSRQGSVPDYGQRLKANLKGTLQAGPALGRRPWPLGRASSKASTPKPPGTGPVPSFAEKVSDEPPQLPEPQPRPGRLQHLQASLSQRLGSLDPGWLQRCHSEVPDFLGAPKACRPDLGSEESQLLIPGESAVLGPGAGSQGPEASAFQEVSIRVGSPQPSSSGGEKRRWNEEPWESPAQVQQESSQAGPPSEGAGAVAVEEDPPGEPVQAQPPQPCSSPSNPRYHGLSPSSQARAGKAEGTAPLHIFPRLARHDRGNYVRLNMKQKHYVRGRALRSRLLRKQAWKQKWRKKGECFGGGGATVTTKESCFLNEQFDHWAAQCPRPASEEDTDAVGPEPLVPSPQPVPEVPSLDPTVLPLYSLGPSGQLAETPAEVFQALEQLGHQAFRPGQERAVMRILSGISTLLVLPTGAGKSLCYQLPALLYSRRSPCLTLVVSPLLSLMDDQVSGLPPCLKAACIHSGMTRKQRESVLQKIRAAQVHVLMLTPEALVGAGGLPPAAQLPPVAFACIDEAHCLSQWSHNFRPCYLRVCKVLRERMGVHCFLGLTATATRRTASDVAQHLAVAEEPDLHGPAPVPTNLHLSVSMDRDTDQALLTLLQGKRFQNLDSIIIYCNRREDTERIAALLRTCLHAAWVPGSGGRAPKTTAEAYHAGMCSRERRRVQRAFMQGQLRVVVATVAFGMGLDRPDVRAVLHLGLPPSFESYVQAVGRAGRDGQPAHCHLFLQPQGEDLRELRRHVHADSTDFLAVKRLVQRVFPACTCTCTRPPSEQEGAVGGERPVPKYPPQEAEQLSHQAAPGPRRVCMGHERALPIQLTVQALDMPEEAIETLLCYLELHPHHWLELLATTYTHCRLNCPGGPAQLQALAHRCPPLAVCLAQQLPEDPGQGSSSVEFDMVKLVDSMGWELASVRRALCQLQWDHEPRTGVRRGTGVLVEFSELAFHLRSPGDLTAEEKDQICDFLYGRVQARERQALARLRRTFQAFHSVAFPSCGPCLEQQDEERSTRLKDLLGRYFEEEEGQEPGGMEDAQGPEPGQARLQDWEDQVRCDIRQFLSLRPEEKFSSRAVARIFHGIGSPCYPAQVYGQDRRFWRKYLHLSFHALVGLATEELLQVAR
Test: SPR; BIAcore T100, 25°C; GST-MCM10 amine-coupled to a CM3 chip (500 response units); RECQ4 as analyte at 1, 0.5, 0.25, 0.125, 0.06 and 0.03 μM; flow 30 and 60 μl/min; HBS buffer (10 mM HEPES pH 7.4, 150 mM NaCl, 0.5 mM TCEP, 0.05% Tween20); global fit to a two state model
Settings: both partners purified

Kd: 170 ± 200 nM
B1: GST-MCM10 (natural protein, human, UniProt Q7L590 1-875, looked up)
chain: MDEEEDNLSLLTALLEENESALDCNSEENNFLTRENGEPDAFDELFDADGDGESYTEEADDGETGETRDEKENLATLFGDMEDLTDEEEVPASQSTENRVLPAPAPRREKTNEELQEELRNLQEQMKALQEQLKVTTIKQTASPARLQKSPVEKSPRPPLKERRVQRIQESTCFSAELDVPALPRTKRVARTPKASPPDPKSSSSRMTSAPSQPLQTISRNKPSGITRGQIVGTPGSSGETTQPICVEAFSGLRLRRPRVSSTEMNKKMTGRKLIRLSQIKEKMAREKLEEIDWVTFGVILKKVTPQSVNSGKTFSIWKLNDLRDLTQCVSLFLFGEVHKALWKTEQGTVVGILNANPMKPKDGSEEVCLSIDHPQKVLIMGEALDLGTCKAKKKNGEPCTQTVNLRDCEYCQYHVQAQYKKLSAKRADLQSTFSGGRIPKKFARRGTSLKERLCQDGFYYGGVSSASYAASIAAAVAPKKKIQTTLSNLVVKGTNLIIQETRQKLGIPQKSLSCSEEFKELMDLPTCGARNLKQHLAKATASGIMGSPKPAIKSISASALLKQQKQRMLEMRRRKSEEIQKRFLQSSSEVESPAVPSSSRQPPAQPPRTGSEFPRLEGAPATMTPKLGRGVLEGDDVLFYDESPPPRPKLSALAEAKKLAAITKLRAKGQVLTKTNPNSIKKKQKDPQDILEVKERVEKNTMFSSQAEDELEPARKKRREQLAYLESEEFQKILKAKSKHTGILKEAEAEMQERYFEPLVKKEQMEEKMRNIREVKCRVVTCKTCAYTHFKLLETCVSEQHEYHWHDGVKRFFKCPCGNRSISLDRLPNKHCSNCGLYKWERDGMLKEKTGPKIGGETLLPRGEEHAKFLNSLK
notes: MCM10, human; construct pGEX-4T-1-MCM10, a gift from Dr. Yilun Liu; also called G-M10; pGEX-4T-1-MCM10; source: E. coli, purified on GSH beads (kept on the beads for pull-downs; eluted with reduced glutathione for the peptide array)
